{"source": "paper PMC10846113", "about": "“fosA11, a novel chromosomal-encoded fosfomycin resistance gene identified in Providencia rettgeri” (Microbiology Spectrum, 2023)", "key": {"[1]": {"system": "C[C@@H]1O[C@@H]1P(=O)(O)O", "assay": "glutathione consumption, monochlorobimane fluorescence, Michaelis-Menten fit", "assay_type": "biochemical, Providencia rettgeri", "details": "30 mM glutathione, 0.05 mM MnCl2, 0.1 M HEPES pH 8.0, 25 °C", "description": "glutathione consumption, monochlorobimane fluorescence, Michaelis-Menten fit on FosA11"}, "[2]": {"system": "C[C@@H]1O[C@@H]1P(=O)(O)O", "assay": "glutathione consumption, monochlorobimane fluorescence, Michaelis-Menten fit", "assay_type": "biochemical, Escherichia coli", "details": "30 mM glutathione, 0.05 mM MnCl2, 0.1 M HEPES pH 8.0, 25 °C", "description": "glutathione consumption, monochlorobimane fluorescence, Michaelis-Menten fit on FosA3"}}, "data": [{"substance": "FosA11 (Providencia rettgeri)", "values": [{"measurement": "Km", "setting": "[1]", "value": "18 ± 4", "unit": "mM"}, {"measurement": "kcat", "setting": "[1]", "value": "56.1 ± 3.2", "unit": "s⁻¹"}, {"measurement": "kcat/Km", "setting": "[1]", "value": "2900 ± 500", "unit": "M⁻¹ s⁻¹"}]}, {"substance": "FosA3 (Escherichia coli)", "values": [{"measurement": "Km", "setting": "[2]", "value": "12 ± 2", "unit": "mM"}, {"measurement": "kcat", "setting": "[2]", "value": "112 ± 5.3", "unit": "s⁻¹"}, {"measurement": "kcat/Km", "setting": "[2]", "value": "9000 ± 1000", "unit": "M⁻¹ s⁻¹"}]}]}
